Key:
factor XIIa = biological target: T1, factor XIIa (UniProt P00748 20-615, limits assumed); test: cell-based or functional assay
T1 sequence (looked up): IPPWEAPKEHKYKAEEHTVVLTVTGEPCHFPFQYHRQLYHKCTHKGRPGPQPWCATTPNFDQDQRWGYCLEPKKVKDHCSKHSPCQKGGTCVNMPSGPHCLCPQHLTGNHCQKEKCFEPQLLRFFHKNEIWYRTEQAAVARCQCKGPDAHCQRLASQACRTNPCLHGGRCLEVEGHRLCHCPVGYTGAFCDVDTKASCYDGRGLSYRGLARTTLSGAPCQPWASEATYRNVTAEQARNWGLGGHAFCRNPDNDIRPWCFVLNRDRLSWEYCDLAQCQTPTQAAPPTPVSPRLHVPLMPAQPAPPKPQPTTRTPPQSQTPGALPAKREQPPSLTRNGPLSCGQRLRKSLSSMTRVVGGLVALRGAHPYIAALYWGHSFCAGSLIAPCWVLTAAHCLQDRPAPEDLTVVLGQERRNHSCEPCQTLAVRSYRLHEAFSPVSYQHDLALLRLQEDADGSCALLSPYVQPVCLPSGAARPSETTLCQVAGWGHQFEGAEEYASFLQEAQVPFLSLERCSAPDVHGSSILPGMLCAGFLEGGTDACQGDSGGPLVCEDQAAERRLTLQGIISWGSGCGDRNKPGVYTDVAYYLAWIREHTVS

factor XIa = factor XIa (UniProt P03951 19-625); test: cell-based or functional assay
factor IX = biological target: T2, factor IX (UniProt P00740 47-461); test: SPR (BIAcore 3000), Ir-CPI immobilized on CM5 chip, factor injected as analyte
T2 construct: also called fIX
Method: (§1) The interaction between Ir-CPI and coagulation or fibrinolytic factors was monitored using a BIAcore 3000 instrument (BIAcore AB, Sweden). Ir-CPI (15 μM) was immobilized on the surface of a CM5 sensor chip in 10 mM acetate buffer, pH 5.0, by the amine coupling procedure according to the manufacturer's instructions. 1500 resonance units (RU) of immobilized Ir-CPI were used for the assay. To subtract the non-specific component from the apparent binding response, a blank flow cell was prepared using the same immobilizing procedure without Ir-CPI. Binding analyses were carried out using HBS buffer (HEPES 10 mM, NaCl 150 mM, EDTA 3 mM; pH 7.4 with 0.005% surfactant P20) as running buffer at 25° C. 100 μl of each analyte (100 nM) was injected on the sensor chip at a flow rate of 70 μl/min Association was monitored during an 84 s injection of analyte. Dissociation was monitored for 3 min after return to the running buffer.
(§2) The ability of Ir-CPI to bind a (co)factor of coagulation or fibrinolysis was evaluated by surface plasmon resonance. […] Moreover, the kinetics of interaction between Ir-CPI and the four target factors (XIIa, XIa, plasmin and kallikrein) were measured after a new immobilization of Ir-CPI. […] Interaction kinetics were determined for each analyte, at 6 different concentrations (from 5 nM to 300 nM). The kinetic data obtained were individually processed with BIA evaluation software in order to determine the kinetics constants.

factor X = biological target: T3, factor X (UniProt P00742 41-488); test: as above
T3 construct: also called fX
Method: as §1, §2

thrombin = biological target: T4, thrombin (UniProt P00734 328-622); test: as above
T4 construct: also called factor IIa; IIa
Method: as §1, §2

factor VIIa = biological target: T5, factor VIIa (UniProt P08709 61-466); test: as above
T5 construct: In the amidolytic and reconstituted assays it was used with tissue factor ('FT-FVIIa', 'tissue factor complex/factor VIIa'); In SPR it is printed only as 'fVIIa'; also called fVIIa; FVIIa
T5 sequence (looked up): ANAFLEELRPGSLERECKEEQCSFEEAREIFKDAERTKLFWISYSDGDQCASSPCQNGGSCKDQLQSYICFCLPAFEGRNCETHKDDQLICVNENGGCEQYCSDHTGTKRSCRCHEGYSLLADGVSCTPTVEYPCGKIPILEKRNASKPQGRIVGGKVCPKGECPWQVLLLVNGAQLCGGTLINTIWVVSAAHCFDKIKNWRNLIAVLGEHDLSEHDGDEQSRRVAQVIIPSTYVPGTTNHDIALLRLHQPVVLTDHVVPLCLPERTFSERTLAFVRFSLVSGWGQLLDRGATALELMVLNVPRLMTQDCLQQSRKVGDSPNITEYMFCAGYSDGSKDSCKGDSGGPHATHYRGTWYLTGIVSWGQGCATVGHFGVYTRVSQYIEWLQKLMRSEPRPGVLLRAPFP
Method: as §1, §2

t-PA = t-PA (UniProt P00750 36-562); test: as above
Chain of t-PA (P00750 36-562 limits assumed): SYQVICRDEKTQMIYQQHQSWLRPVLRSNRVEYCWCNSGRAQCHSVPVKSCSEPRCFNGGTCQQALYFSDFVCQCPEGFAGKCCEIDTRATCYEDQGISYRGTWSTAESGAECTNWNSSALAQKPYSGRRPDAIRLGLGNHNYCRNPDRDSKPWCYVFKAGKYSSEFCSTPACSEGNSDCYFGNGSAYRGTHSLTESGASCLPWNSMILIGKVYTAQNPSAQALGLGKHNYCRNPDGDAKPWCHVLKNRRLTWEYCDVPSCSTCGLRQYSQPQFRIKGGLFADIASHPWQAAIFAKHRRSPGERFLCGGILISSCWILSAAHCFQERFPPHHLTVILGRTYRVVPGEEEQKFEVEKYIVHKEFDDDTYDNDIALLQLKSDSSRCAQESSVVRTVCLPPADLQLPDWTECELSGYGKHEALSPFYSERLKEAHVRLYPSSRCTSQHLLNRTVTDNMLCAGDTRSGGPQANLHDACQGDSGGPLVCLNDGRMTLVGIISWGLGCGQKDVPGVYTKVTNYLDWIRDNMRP
Method: as §1, §2

plasminogen = plasminogen (UniProt P00747 20-810); test: as above
Chain of plasminogen (P00747 20-810 limits assumed): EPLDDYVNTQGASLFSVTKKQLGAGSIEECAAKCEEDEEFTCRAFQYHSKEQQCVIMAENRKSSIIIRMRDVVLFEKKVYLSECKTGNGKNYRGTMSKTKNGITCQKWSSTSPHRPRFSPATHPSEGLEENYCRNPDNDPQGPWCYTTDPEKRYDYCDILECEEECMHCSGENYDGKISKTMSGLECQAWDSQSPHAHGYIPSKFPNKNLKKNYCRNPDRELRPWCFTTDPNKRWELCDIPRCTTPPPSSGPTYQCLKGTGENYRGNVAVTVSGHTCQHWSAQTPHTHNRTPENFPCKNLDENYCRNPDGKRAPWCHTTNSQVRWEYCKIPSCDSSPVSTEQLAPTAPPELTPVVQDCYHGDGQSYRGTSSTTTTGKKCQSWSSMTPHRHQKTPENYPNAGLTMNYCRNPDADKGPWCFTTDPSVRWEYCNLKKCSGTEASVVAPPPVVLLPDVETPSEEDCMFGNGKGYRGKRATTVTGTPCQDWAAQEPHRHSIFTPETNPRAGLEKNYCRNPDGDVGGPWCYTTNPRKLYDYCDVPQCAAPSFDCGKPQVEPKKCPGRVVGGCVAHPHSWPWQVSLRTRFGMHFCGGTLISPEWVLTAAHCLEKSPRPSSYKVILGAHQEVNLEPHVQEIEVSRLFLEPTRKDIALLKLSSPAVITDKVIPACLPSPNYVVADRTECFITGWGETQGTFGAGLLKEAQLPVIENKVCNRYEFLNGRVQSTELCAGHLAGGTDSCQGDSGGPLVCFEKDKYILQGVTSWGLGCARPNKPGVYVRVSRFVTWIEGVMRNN
Method: as §1, §2

[1] = biological target: T6, high molecular weight kininogen (UniProt P01042 19-644); test: as above
T6 construct: also called HMWK
T6 sequence (looked up): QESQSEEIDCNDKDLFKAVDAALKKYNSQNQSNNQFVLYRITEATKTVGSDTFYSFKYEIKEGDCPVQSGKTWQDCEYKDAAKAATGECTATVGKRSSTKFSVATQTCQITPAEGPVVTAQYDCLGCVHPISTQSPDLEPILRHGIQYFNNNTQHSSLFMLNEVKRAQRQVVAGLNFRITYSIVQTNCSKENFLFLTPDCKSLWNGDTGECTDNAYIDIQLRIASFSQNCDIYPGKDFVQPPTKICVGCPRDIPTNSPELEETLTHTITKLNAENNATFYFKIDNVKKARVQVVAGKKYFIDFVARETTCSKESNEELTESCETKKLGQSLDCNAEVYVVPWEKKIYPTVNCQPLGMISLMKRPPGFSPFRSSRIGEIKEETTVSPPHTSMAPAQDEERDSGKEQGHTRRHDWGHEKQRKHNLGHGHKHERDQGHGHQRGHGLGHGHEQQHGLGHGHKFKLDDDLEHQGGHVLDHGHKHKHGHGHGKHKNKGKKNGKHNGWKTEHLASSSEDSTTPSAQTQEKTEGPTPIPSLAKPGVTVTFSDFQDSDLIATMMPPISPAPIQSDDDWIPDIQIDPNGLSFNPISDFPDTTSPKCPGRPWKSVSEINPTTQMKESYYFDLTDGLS
Method: as §1, §2

plasma kallikrein = plasma kallikrein (UniProt P03952 20-638); test: SPR kinetics, Ir-CPI immobilized (about 200 RU), analyte at 6 concentrations from 5 nM to 300 nM
Chain of plasma kallikrein (P03952 20-638 limits assumed): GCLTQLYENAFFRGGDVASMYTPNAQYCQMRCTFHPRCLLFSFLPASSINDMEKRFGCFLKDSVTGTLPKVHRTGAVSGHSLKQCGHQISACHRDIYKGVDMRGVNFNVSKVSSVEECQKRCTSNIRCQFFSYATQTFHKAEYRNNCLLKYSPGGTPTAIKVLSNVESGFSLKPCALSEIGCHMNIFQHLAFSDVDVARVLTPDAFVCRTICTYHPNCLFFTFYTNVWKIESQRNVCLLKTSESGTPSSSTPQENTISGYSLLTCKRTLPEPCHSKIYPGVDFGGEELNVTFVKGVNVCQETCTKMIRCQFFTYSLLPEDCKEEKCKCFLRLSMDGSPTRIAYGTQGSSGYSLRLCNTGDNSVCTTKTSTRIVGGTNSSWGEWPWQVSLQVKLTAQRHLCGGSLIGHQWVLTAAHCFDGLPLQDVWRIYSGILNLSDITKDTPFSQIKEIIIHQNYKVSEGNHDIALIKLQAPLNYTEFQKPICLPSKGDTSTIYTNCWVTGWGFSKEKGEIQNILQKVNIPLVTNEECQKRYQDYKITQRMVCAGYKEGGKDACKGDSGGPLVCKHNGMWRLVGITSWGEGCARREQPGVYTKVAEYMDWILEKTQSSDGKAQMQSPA
Method: Interaction kinetics were determined, for each analyte, with 6 different concentrations (from 5 nM to 300 nM). Binding data were analyzed using BIA evaluation software to determine the kinetic constants.
The ability of Ir-CPI to bind a (co)factor of coagulation or fibrinolysis was evaluated by surface plasmon resonance. […] Moreover, the kinetics of interaction between Ir-CPI and the four target factors (XIIa, XIa, plasmin and kallikrein) were measured after a new immobilization of Ir-CPI. […] Interaction kinetics were determined for each analyte, at 6 different concentrations (from 5 nM to 300 nM). The kinetic data obtained were individually processed with BIA evaluation software in order to determine the kinetics constants. […] FIG. 9 represents sensorgrams for interactions between coagulation factors and immobilized Ir-CPI measured by surface plasmon resonance. Ir-CPI was immobilized onto the surface of a sensor chip CM5 at level of 1500 resonance units (RUs). Contact factors (100 nM final concentration) were injected at a flow rate of 70 μl/min in HBS buffer, and association was monitored. After return to buffer flow, dissociation was monitored during 84 s. The sensor chip surface was regenerated by a pulse injection of 25 mM NaOH after each experiment.

B1: Ir-CPI (Ixodes ricinus Contact Phase Inhibitor), recombinant (other)
chain: ANHKGRGRPAKCKLPPDDGPCRARIPSYYFDRKTKTCKEFMYGGCEGNENNFENITTCQEECRAKKV
notes: Kunitz-type protein; Made in E. coli as a GST fusion (pGEX-6P-1), released with PreScission protease and gel filtered; In the SPR assay it was amine-coupled to a CM5 chip; also called ID; NO; 7 without its peptide signal
For B1, the “EC50 (µg/mL) of inhibition of FXII coagulation activity, aPTT-based assay in human plasma with FXII deficient plasma” value (factor XIIa) was 1.38 µg/mL, the “EC50 (µg/mL) of inhibition of FXI coagulation activity, aPTT-based assay in human plasma with FXI deficient plasma” value (factor XIa) was 1.41 µg/mL and the binding result (factor IX) was “no binding (tested: 100 nM)”. B1: no binding (tested: 100 nM) (factor X); no binding (tested: 100 nM) (thrombin); no binding (tested: 100 nM) (factor VIIa). B1: no binding (tested: 100 nM) (t-PA); no binding (tested: 100 nM) (plasminogen); no binding (tested: 100 nM) [1]. The Kd (plasma kallikrein) was 200 nM.
